The record followed here is US20240366776A1 (Hoffmann-La Roche, published 2024).

Assay [1] has as its target T1, human IL-2 (human, UniProt P60568 21-153, biotin-labeled in the IL2RB blocking assay).
T1 construct: also called biotin-labeled IL-2 (Acro Biosystems IL2-H82E4)
Description: HTRF IL-2:IL2RB. A general note: Time-resolved FRET reads energy transfer from a long-lived donor to a nearby acceptor.

The target of assay [2] is T1, human IL-2. Description: HTRF.
The next assay concerns the target PD-1 (human, UniProt Q15116 25-167, limits assumed). Description: HTRF.

Chain of PD-1 (Q15116 25-167 limits assumed): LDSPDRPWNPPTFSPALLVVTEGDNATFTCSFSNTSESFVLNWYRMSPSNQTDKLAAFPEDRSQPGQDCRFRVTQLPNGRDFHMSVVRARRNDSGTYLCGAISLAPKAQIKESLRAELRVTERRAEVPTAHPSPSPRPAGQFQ
T1 sequence (P60568 21-153 limits assumed): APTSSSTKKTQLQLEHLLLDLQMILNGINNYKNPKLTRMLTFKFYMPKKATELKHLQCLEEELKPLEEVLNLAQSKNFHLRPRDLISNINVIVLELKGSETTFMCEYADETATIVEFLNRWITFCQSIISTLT

B1: PD1-R04-C10 (scFv)
scFv: MSTSTEQKLISEEDLQVQLVQSGAEVKKPGASVKVSCKASGYTFTTYYMHWVRQAPGQGLEWMGIINPSGGGTLYAQKFQGRVTMTRDTSTSTVYMELSSLRSEDTAVYYCAAGLFIWGQGTTVTVSSASGGGGSGGGGSGGGGSHASDIVMTQSPDSLAVSLGERATINCKASQSLLHSSSNKNYLAWYQQKPGQPPKLLIYWASTRESGVPDRFSGSGSGTDFTLTISSLQAEDVAVYYCQQYYSTPITFGPGTKVDIKGSGLNDIFEAQKIEWHEGKPIPNPLLGLDST
notes: tied by the comment 'PD1_R04_C10- Internal anti-PD1 mAb' of PEP001315
For the molecule B1, the “IL2RB Blocking” value with human IL-2 [1] turned out to be 1550. Also, the “IL2 Binding” value with human IL-2 [2] turned out to be 4. Further, the “PD1 Binding” value in the assay with PD-1 was determined as 1550.

B2: PD1-IL2-R02-A11 (scFv, V domains shown)
VH: QVQLVQSGAEVKKPGASVKVSCKASGHTFTRYYMHWVRQAPGQGLEWMGIINPSGGYATYAQKFQGRVTMTRDTSTSTVYMELSSLRSEDTAVYYCASGWDVWGQGTLVTVSS
VL: DIQMTQSPSSLSASVGDRVTITCRASQSINSWLAWYQQKPGKAPKLLIYATSTLESGVPSRFSGSGSGTDFTLTISSLQPEDFATYYCQQSYSFPPTFGQGTKVEIK
notes: cf
For B2, in the assay with human IL-2 [1], the “IL2RB Blocking” value was 1780. The “IL2 Binding” value in the assay with human IL-2 [2] was determined as 1560. Further, the “PD1 Binding” value with PD-1 was found to be 1620.

B3: PD1-IL2-R02-C02 (SEQ ID NO: 31) (scFv)
scFv: QVQLVQSGAEVKKPGVSVKVSCKASGYTFPRSYIHWVRQAPGQGLEWMGWINPHSGDTYYAQNFQGRVTMTRDTSTSTVYMELSSLRSEDTAVYYCARDTGLGYYYGSGDFDYWGQGTLVTVSSASGGGGSGGGGSGGGGSHASDIQMTQSPSSLSASVGDRVTITCRASQSISRYLNWYQQKPGKAPKLLIYTASSLQSGVPSRFSGSGSGTDFTLTISSLQPEDFATYYCQQANRFPLTFGPGTKVDIK
notes: V5-tagged in the assay
On to B3, for which the “IL2RB Blocking” value with human IL-2 [1] turned out to be 1070. Moreover, in the assay with human IL-2 [2], the “IL2 Binding” value is 298. In the assay with PD-1, the “PD1 Binding” value was found to be 1300.

B4: PD1-IL2-R02-B07 (scFv)
chain: QVQLVQSGAEVKKPGASVKVSCKASGDTFTRHYVHWVRQAPGQGLEWMGIINPSGGYASYAQKFQGRVTMTRDTSTSTVYMELSSLRSEDTAVYYCAAGLFIWGQGTLVTVSSASGGGGSGGGGSGGGGSHASDIQMTQSPSSLSASVGDRVTITCRASQSIGRWLAWYQQKPGKAPKLLIYSASNLETGVPSRFSGSGSGTDFTLTISSLQPEDFATYYCQQANSFPVTFGPGTKVDIK
In the case of B4, the “IL2RB Blocking” value in the assay with human IL-2 [1] was 1810. Further, the “IL2 Binding” value in the assay with human IL-2 [2] was 628. Also, the “PD1 Binding” value with PD-1 is 1680.

B5: PD1-IL2-R07-A09 (SEQ ID NO: 34) (scFv)
scFv: QVQLVQSGAEVKKPGASVKVSCKASGYTFTSYYMHWVRQAPGQGLEWMGIINPSDGSTTYAQSFQGRVTMTRDTSTSTVYMELSSLRSEDTAVYYCASGWDVWGQGTLVTVSSASGGGGSGGGGSGGGGSHASDIVMTQSPDSLAVSLGERATINCKSSQSVFSSANNKNYLAWYQQKPGQPPKLLIYWASTRESGVPDRFSGSGSGTDFTLTISSLQAEDVAVYYCQQYFGTPVTFGGGTKVEIK
notes: V5-tagged in the assay
With B5, in the assay with human IL-2 [1], the “IL2RB Blocking” value turned out to be 910. In addition, in the assay with human IL-2 [2], the “IL2 Binding” value is 2040. Further, the “PD1 Binding” value with PD-1 was found to be 1240.

B6: PD1-IL2-R07-A04 (scFv)
chain: QVQLVQSGAEVKKPGASVKVSCKASGYTFTDYYMHWVRQAPGQGLEWMGIINPRAGYTSYALKFQGRVTMTRDTSTSTVYMELSSLRSEDTAVYYCTSGMDVWGQGTLVTVSSASGGGGSGGGGSGGGGSHASDIQMTQSPSSLSASVGDRVTITCRASQSISTWLAWYQQKPGKAPKLLIYAASSLQSGVPSRFSGSGSGTDFTLTISSLQPEDFATYYCQQSYSFPVTFGQGTKVEIK
Turning to B6, the “IL2RB Blocking” value in the assay with human IL-2 [1] was 1610. The “IL2 Binding” value in the assay with human IL-2 [2] stood at 973. In addition, in the assay with PD-1, the “PD1 Binding” value turned out to be 730.

B7: PD1-IL2-R02-B05 (scFv)
chain: QVQLVQSGAEVKKPGASVKVSCKASGYTFTNYYIHWVRQAPGQGLEWMGIINPRAGYTSYALKFQGRVTMTRDTSTSTVYMELSSLRSEDTAVYYCAGGWLDWGQGTLVTVSSASGGGGSGGGGSGGGGSHASDIQMTQSPSSLSASVGDRVTITCRASQSISSWLAWYQQKPGKAPKLLIYAASSLQSGVPSRFSGSGSGTDFTLTISSLQPEDFATYYCQQSFTMPITFGQGTRLEIK
Turning to B7, the “IL2RB Blocking” value with human IL-2 [1] came out at 1610. In addition, the “IL2 Binding” value with human IL-2 [2] came out at 2490. Also, the “PD1 Binding” value with PD-1 was found to be 1660.

B8: PD1-IL2-R02-C03 (SEQ ID NO: 32) (scFv)
scFv: QVQLVQSGAEVKKPGASVKVSCKASGYTFPRYHIHWVRQAPGQGLEWMGMINPSGGTTTYAQKFQGRVTMTRDTSTSTVYMELSSLRSEDTAVYYCARDTGLGYYYGSGDFDYWGQGTLVTVSSASGGGGSGGGGSGGGGSHASDIQMTQSPSSLSASVGDRVTITCRASQSISSWLAWYQQKPGKAPKLLIYAASSLQSGVPSRFSGSGSGTDFTLTISSLQPEDFATYYCQQSHSFPLTFGGGTKVEIK
notes: V5-tagged in the assay
Consider B8, for which the “IL2RB Blocking” value with human IL-2 [1] is 1210. For the same molecule, in the assay with human IL-2 [2], the “IL2 Binding” value was 293. Further, the “PD1 Binding” value with PD-1 stood at 1380.

B9: PD1-IL2-R02-A08 (scFv, V domains shown)
VH: QVQLVQSGAEVKKPGASVKVSCKVSGYTFTSYDINWVRQAPGQGLEWMGWINPNSGDTGYAQKFQGRVTMTRDTSTSTVYMELSSLRSEDTAVYYCARDTGLGYYYGSGDFDYWGQGTLVTVSS
VL: DIQMTQSPSSLSASVGDRVTITCQASQDIHNYLNWYQQKPGKAPKLLIYDVSNLETGVPSRFSGSGSGTDFTLTISSLQPEDFATYYCQQAISFPLTFGGGTKVEIK
notes: cf
In the case of B9, the “IL2RB Blocking” value in the assay with human IL-2 [1] was found to be 1610. Further, in the assay with human IL-2 [2], the “IL2 Binding” value came out at 520. Moreover, in the assay with PD-1, the “PD1 Binding” value was 995.
